Data published in patent publication US10613105 (FRAUNHOFER GESELLSCHAFT ZUR FORDERUNG DER ANGEWANDTEN …, dated 2020).

The binders below were run against TLR4 receptor complex expressed in the NIH 3T3 pNifty SEAP TLR4/CD14 reporter cell line (assay: cell-based or functional assay).
TLR4 receptor complex expressed in the NIH 3T3 pNifty SEAP TLR4/CD14 reporter cell line, sequence (O00206 24-839, chain 1 of 2): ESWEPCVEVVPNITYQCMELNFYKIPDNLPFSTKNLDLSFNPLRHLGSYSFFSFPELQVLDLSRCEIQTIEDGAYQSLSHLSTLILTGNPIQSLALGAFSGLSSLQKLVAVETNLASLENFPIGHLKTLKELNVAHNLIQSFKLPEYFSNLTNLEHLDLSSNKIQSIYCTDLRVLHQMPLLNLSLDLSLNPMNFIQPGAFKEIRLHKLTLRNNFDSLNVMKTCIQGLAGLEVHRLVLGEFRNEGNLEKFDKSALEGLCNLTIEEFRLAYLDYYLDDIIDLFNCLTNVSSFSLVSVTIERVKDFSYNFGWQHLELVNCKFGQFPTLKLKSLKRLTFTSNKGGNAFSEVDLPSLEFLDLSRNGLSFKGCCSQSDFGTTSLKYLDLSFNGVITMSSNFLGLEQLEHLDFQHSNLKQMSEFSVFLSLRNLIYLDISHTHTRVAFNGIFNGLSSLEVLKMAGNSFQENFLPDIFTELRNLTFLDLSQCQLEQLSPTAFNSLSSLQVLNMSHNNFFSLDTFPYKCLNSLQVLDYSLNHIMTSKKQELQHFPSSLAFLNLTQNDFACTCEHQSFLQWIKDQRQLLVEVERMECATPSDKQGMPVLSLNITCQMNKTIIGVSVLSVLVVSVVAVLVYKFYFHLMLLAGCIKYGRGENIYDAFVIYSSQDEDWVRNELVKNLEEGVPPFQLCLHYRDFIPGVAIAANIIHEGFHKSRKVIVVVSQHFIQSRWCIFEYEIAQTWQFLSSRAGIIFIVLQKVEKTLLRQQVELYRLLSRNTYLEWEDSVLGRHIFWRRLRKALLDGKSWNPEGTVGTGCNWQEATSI
TLR4 receptor complex expressed in the NIH 3T3 pNifty SEAP TLR4/CD14 reporter cell line, sequence (P08571 20-345, chain 2 of 2, further chain): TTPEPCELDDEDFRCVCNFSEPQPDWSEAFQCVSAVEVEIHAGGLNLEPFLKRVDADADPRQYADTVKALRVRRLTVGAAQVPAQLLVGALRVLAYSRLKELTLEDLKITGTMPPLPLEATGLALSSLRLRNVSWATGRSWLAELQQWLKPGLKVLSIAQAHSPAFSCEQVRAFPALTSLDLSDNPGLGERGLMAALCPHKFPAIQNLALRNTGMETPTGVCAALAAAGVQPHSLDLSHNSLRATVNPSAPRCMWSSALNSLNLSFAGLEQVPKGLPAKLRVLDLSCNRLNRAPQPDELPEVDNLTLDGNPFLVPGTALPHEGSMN

Binder	IC50 in the PAMP assay (SEAP reporter, NIH 3T3 pNifty SEAP TLR4/CD14 cells) [mM]
KRKEVICRGSDDDYSFCRAL [KRKEVICRGSDDDYSFCRAL peptide (SEQ ID NO: 4)]	> 200
KGETVNTTISFSFKGIKFSK [KGETVNTTISFSFKGIKFSK peptide (SEQ ID NO: 1)]	> 200
KMQYPISINVNPCIELKGSK [KMQYPISINVNPCIELKGSK peptide (SEQ ID NO: 2)]	> 200
GLLHIFYIPRRDLKQLYFNL [GLLHIFYIPRRDLKQLYFNL peptide (SEQ ID NO: 3)]	> 200
